From article PMC12381214, “Multi-state catch bond formed in the Izumo1:Juno complex that initiates human fertilization” (Nature Communications, 2025) come the findings set out here.

Positions count from the first letter of the chain named. Names and notes keep the numbering of the source.

Common to all, as to conditions: both partners purified
Assay [1] deals with T1, human Juno ectodomain H177Q, infertility-associated variant (JunoH177Q-His10-SpyTag-LPETGG) (human, H177Q (stands in the printed letters), glycosylated (sites not given); SpyTag joined by an isopeptide bond to a SpyCatcher polyprotein).
T1 construct: Juno, human, ectodomain (ECD), UniProt A6ND01, natural variant H177Q found in patients; also called HBM-JunoH177Q-His10-SpyTag-LPETGG; source: Sf9 (ExpiSF) cells, baculovirus, secreted, purified (Ni resin, SEC); not shown: HBM secretion signal peptide, N-terminal, cleaved; His10, C-terminal, kept; SpyTag, C-terminal, kept; LPETGG sortase motif, C-terminal, kept
In words: flow cytometry-based bead-binding assay; Juno held on 3.75 µm polystyrene beads through the ybbR AFM-handle; Izumo1 labelled with SpyCatcher-GFP, 5-fold dilution series of 7 dilutions from 100x the expected KD, 3 h, 0.1% tween 20 in TBS-G (20 mM Tris-HCl, 300 mM NaCl, 10% glycerol, pH 8.0); Hill equation fitted. (Flow cytometry measures light scatter and fluorescence of single cells or particles in a stream.)

Assay [2] concerns the target T2, human Juno ectodomain, wild type (Juno-His10-SpyTag-LPETGG) (human, glycosylated (sites not given); SpyTag joined by an isopeptide bond to a SpyCatcher polyprotein).
T2 construct: Juno, human, ectodomain (ECD), UniProt A6ND01; the stretch between the HBM signal peptide and His10 in the printed construct; the printed construct has a D between the signal's ...YIYA and G20 that may stay on the mature protein; also called Folr4; Izumo1r; source: Sf9 (ExpiSF) cells, baculovirus, secreted, purified (Ni resin, SEC); not shown: HBM secretion signal peptide, N-terminal, cleaved; …
The assay is described as above.

In assay [3] the target is T2, human Juno ectodomain, wild type …. In words: AFM single-molecule force spectroscopy (constant speed); Izumo1 on the cantilever and Juno on the cover glass, each covalently held by its C-terminus through a ddFLN4-ELP-ybbR handle; contact 0.2 s, retraction at 800, 1600, 3200, 6400 nm·s^−1; PBS pH 7.4.

T2 sequence (chain, as listed by the source): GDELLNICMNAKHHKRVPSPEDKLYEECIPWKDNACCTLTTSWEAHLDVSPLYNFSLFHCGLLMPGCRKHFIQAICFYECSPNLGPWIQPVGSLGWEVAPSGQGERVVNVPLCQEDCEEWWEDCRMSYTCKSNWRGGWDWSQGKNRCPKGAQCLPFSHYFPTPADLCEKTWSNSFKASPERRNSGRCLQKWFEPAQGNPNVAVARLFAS
T1 sequence (chain, as listed by the source with the stated changes): as the sequence (chain, as listed by the source) above, with H158Q counted along it

B1: human Izumo1 ectodomain, wild type (Izumo1-His10-SpyTag-LPETGG) (domain or fragment)
chain: CVICDPSVVLALKSLEKDYLPGHLDAKHHKAMMERVENAVKDFQELSLNEDAYMGVVDEATLQKGSWSLLKDLKRITDSDVKGDLFVKELFWMLHLQKETFATYVARFQKEAYCPNKCGVMLQTLIWCKNCKKEVHACRKSYDCGERNVEVPQMEDMILDCELNWHQASEGLTDYSFYRVWGNNTETLVSKGKEATLTKPMVGPEDAGSYRCELGSVNSSPATIINFHVTVLP
modifications: glycosylated (sites not given); SpyTag joined by an isopeptide bond to a SpyCatcher polyprotein
notes: Izumo1, human, ectodomain (ECD), UniProt Q8IYV9; the stretch between the HEM signal peptide and His10 in the printed construct; also called HEM-Izumo1-His10-SpyTag-LPETGG; Izumo1-GFP; source: Sf9 (ExpiSF) cells, baculovirus, secreted, purified (Ni resin, SEC); not shown: HEM secretion signal peptide, N-terminal, cleaved; His10, C-terminal, kept; SpyTag, C-terminal, kept; LPETGG sortase motif, …
For orientation: Kd means the constant that tells how readily two partners part at equilibrium. Low values mean tighter binding, high ones weaker binding. For B1, the Kd in assay [1] is 64 nM; in assay [2], 45 nM.

B2: human Izumo1 ectodomain E71A (Izumo1E71A-His10-SpyTag-LPETGG) (domain or fragment)
chain: B1 chain with E50A
modifications: glycosylated (sites not given); SpyTag joined by an isopeptide bond to a SpyCatcher polyprotein
notes: Izumo1, human, ectodomain (ECD), UniProt Q8IYV9, with E71A; also called HEM-Izumo1E71A-His10-SpyTag-LPETGG; source: Sf9 (ExpiSF) cells, baculovirus, secreted, purified (Ni resin, SEC); not shown: HEM secretion signal peptide, N-terminal, cleaved; His10, C-terminal, kept; SpyTag, C-terminal, kept; LPETGG sortase motif, C-terminal, kept
With B2, in assay [3], the binding result is reported as “binds”.

B3: human Izumo1 ectodomain R160A (Izumo1R160A-His10-SpyTag-LPETGG) (domain or fragment)
chain: B1 chain with R139A
modifications: glycosylated (sites not given); SpyTag joined by an isopeptide bond to a SpyCatcher polyprotein
notes: Izumo1, human, ectodomain (ECD), UniProt Q8IYV9, with R160A; also called HEM-Izumo1R160A-His10-SpyTag-LPETGG; source: Sf9 (ExpiSF) cells, baculovirus, secreted, purified (Ni resin, SEC); not shown: HEM secretion signal peptide, N-terminal, cleaved; His10, C-terminal, kept; SpyTag, C-terminal, kept; LPETGG sortase motif, C-terminal, kept
For the molecule B3, the binding result in assay [3] is recorded as “binds”.

B4: human Izumo1 ectodomain K150A (Izumo1K150A-His10-SpyTag-LPETGG) (domain or fragment)
chain: B1 chain with K129A
modifications: glycosylated (sites not given); SpyTag joined by an isopeptide bond to a SpyCatcher polyprotein
notes: Izumo1, human, ectodomain (ECD), UniProt Q8IYV9, with K150A; also called HEM-Izumo1K150A-His10-SpyTag-LPETGG; source: Sf9 (ExpiSF) cells, baculovirus, secreted, purified (Ni resin, SEC); not shown: HEM secretion signal peptide, N-terminal, cleaved; His10, C-terminal, kept; SpyTag, C-terminal, kept; LPETGG sortase motif, C-terminal, kept
For B4, in assay [2], the Kd is 110 nM. In other words, the sub-micromolar range.

B5: human Izumo1 ectodomain H157A (Izumo1H157A-His10-SpyTag-LPETGG) (domain or fragment)
chain: B1 chain with H136A
modifications: glycosylated (sites not given); SpyTag joined by an isopeptide bond to a SpyCatcher polyprotein
notes: Izumo1, human, ectodomain (ECD), UniProt Q8IYV9, with H157A; also called HEM-Izumo1H157A-His10-SpyTag-LPETGG; source: Sf9 (ExpiSF) cells, baculovirus, secreted, purified (Ni resin, SEC); not shown: HEM secretion signal peptide, N-terminal, cleaved; His10, C-terminal, kept; SpyTag, C-terminal, kept; LPETGG sortase motif, C-terminal, kept
B5: the binding result in assay [3] was “binds”.
